A short description of the series: yeast display, Sf9 membrane polyspecificity reagent, FACS + sequencing; frameworks hold sequencing errors. In short, it runs like this: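 Nanobodies came from a synthetic yeast display library in Saccharomyces cerevisiae BJ5465, induced with galactose for 36–48 hours and stained for 1 hour at 4 °C with 10% biotinylated, detergent-solubilized Sf9 membrane reagent. Cells were enriched on streptavidin microbeads and then FACS-sorted, with low and high (top ~1%) gates set on anti-HA fluorescence for expression and streptavidin fluorescence for reagent binding. Each polyreactivity label reflects the gate a clone came from. Genes were amplified by colony PCR, sequenced by MiSeq 2 × 250 and filtered by CDR length.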
Consider “QVQLVESGGGLVQAGGSLRLSCAASGFIFWSYAMGWYRQERGNEREWVAAISWSGGRTYYADSVKGRFTISRDNAKNTVYLQMNSLKPEDTAVYYCAAVKRDSSQYPALDYWGQGTQVTVSS”, for which the “polyreactivity (PSR sort gate)” value was “high polyreactivity”.

With “QVQLVESGGGLVQAGGSLRLSCAASGFIFWWYAMGWYRQAPGKERELVATITASVGSTNYADSVKGRFTISRDNAKNTVYLQMNSLKPEDTAVYYCATDIIGAIRDWDHTRMDYWGQGTQVTVSS”, the “polyreactivity (PSR sort gate)” value is given as “low polyreactivity”.

For “QVQLVESGGGLVQAGGSLRLSCAASGFIFWYYAMGWSRQAPGKERELVAAISKSGGRTYYADSVKGRFTISRDNAKNTVYLQMNSLKPEDTAVYYCARRAYLSYGYWSDYWGQGTQVTVSS”, the “polyreactivity (PSR sort gate)” value is listed as “high polyreactivity”.

With “QVQLVESGGGLVQAGGSLRLSCAASGFIFWYYAMGWYRQAPGKERELVAAISSRGGSTYYADSVKGRFTISRDNAKNTVYLQMNSLKPEDTAVYYCNARYVYYGSGNDYWGQGTQVTVSS”, the “polyreactivity (PSR sort gate)” value is listed as “high polyreactivity”.

As to “QVQLVESGGGLVQAGGSLRLSCAASGFIFWYYGMGWYRPAPGKERELVATITSGGSTTYADSVKGRFTISRDNAKNTVYLQMNSLKPEDTAVYYCAADLFYGYYSQADFEYWGQGTQVTVSS”, the “polyreactivity (PSR sort gate)” value was “high polyreactivity”.

On to “QVQLVESGGGLVQAGGSLRLSCAASGFIFYAYAMGWYRQAPGKERELVAAITRSGGSTYYADSVKGRFTISRDNAKNTVYLQMNSLKPEDTAVYYCAARQRTKLGYWGQGTQVTVSS”, for which the “polyreactivity (PSR sort gate)” value is “high polyreactivity”.

“QVQLVESGGGLVQAGGSLRLSCAASGFIFYDYAMGWYRQAPGKERELVAAISKRGGSTYYADSVKGRFTISRDNAKNTVYLQMNSLKPEDTAVYYCAATSYRRTGYNYWGQGTQVTVSS”: the “polyreactivity (PSR sort gate)” value is reported as “high polyreactivity”.

Consider “QVQLVESGGGLVQAGGSLRLSCAASGFIFYDYDMGWYRQAPGKERELVAAITYSGGSTYYADSVKGRFTISRDNAKNTVYLQMNSLKPEDTAVYYCAAVKSRYAEAVDYYYWGQGTQVTVSS”, for which the “polyreactivity (PSR sort gate)” value is on record as “low polyreactivity”.

Regarding “QVQLVESGGGLVQAGGSLRLSCAASGFIFYGNAMGWYRQAPGKERELVATISDGGSTNYADSVKGRFTISRDNAKNTVYFQMNSLKPEDTAVYYCATEYYTPVRGYGYWGQGTQVTVSS”, the “polyreactivity (PSR sort gate)” value is listed as “low polyreactivity”.

In the case of “QVQLVESGGGLVQAGGSLRLSCAASGFIFYHYAMGWYRQAPGKERELVAAISWNGGRTYYADSVKGRFTISRDNAKNTVYLQMNSLKPEDTAVYYCAAPVLTSDYTLDSYYWGQGTQVTVSS”, the “polyreactivity (PSR sort gate)” value was “high polyreactivity”.

As to “QVQLVESGGGLVQAGGSLRLSCAASGFIFYKNAMGWYRQAAGKERELVASITRTGDSTNYADSVKGRFTISRDNPKNTVYLQLNSLKPEDTAVYYCAKVLRRWPDPAGGMDYWGQGTQVTVSS”, the “polyreactivity (PSR sort gate)” value is reported as “high polyreactivity”.

In the case of “QVQLVESGGGLVQAGGSLRLSCAASGFIFYKNAMGWYRQAPGKERELVADISKRGASTYYADSVKGRFTISRDNAKNTVYLQMNSLKPEDTAVYYCAAGYYRASTTVTHGGIEGDSWGQGTQVTVSS”, the “polyreactivity (PSR sort gate)” value is on record as “high polyreactivity”.

Regarding “QVQLVESGGGLVQAGGSLRLSCAASGFIFYKYAMGWYRQAPGKERELVAAISRRGGNTYYADSVKGRFTISRDNAKNTVYLQMNSLKPEDTAVYYCIAVLYFPYEYWGQGTQVTVSS”, the “polyreactivity (PSR sort gate)” value is given as “high polyreactivity”.

On to “QVQLVESGGGLVQAGGSLRLSCAASGFIFYLYAMGWYRQAPGKERELVAAISSSGGGTYYADSVKGRFTISRDNAKNTVYLQMNSLKPEDTAVYYCNVPLSYRSEYDYWGQGTQVTVSS”, for which the “polyreactivity (PSR sort gate)” value is reported as “high polyreactivity”.

Take “QVQLVESGGGLVQAGGSLRLSCAASGFIFYLYAMGWYRQAPGKERELVAAISWSGGITYYADSVKGRFTISRDNAKNTVYLQMNSLKPEDTAVYYCNAVGASASDGDYWGQGTQVTVSS”: the “polyreactivity (PSR sort gate)” value is recorded as “high polyreactivity”.

Consider “QVQLVESGGGLVQAGGSLRLSCAASGFIFYLYAMGWYRQAPGTERELVAAISSSGGGTYYADSVKGRFTISRDNAKNTVYLQMNSLKPEDTAVYYCNVPLSYRSEYDYWGQGTQVTVSS”, for which the “polyreactivity (PSR sort gate)” value is listed as “high polyreactivity”.

“QVQLVESGGGLVQAGGSLRLSCAASGFIFYNALGWYRQAPGKERELVAAISSGGNTNYADSVKGRFTISRDNAKNTVYLQMNSLKPEDTAVYYCNAGLYQYDGWANYIRYDYWGQGTQVTVSS”: the “polyreactivity (PSR sort gate)” value is given as “low polyreactivity”.

For the sequence “QVQLVESGGGLVQAGGSLRLSCAASGFIFYNYAMGWYRQAPGKERELVAAISASGGRTYYADSVKGRFTISRDNAKNTVYLQMNRLKPEETAVYYCNARVNYKGYDYWGQGTQVTVSS”, the “polyreactivity (PSR sort gate)” value is “high polyreactivity”.

With “QVQLVESGGGLVQAGGSLRLSCAASGFIFYNYAMGWYRQAPGKVRELVAAISASGGRTYYADSVKGRFTISRDNAKNTVYLQMNRLKPEDTAVYYCNARVNYKGYDYWGQGTQVTVSS”, the “polyreactivity (PSR sort gate)” value is “high polyreactivity”.

As to “QVQLVESGGGLVQAGGSLRLSCAASGFIFYNYDMGWYRQAPGKERELVAAITGGGSTNYADSVKGRFTISRDNAKNTVYLKMNSLKPEDTAVYYCAAEEGPPCYRYDYWGQGTQVTVSS”, the “polyreactivity (PSR sort gate)” value was “low polyreactivity”.

As for “QVQLVESGGGLVQAGGSLRLSCAASGFIFYPNPMGWYRQAPGKERELVAAITSGGSTYADSVKGRFTISRDNAKNTVYLQMNSLKPEDTAVYYCAAVDTSIITFWYIASDGFDYWGQGTQVTVSS”, the “polyreactivity (PSR sort gate)” value is given as “low polyreactivity”.

Take “QVQLVESGGGLVQAGGSLRLSCAASGFIFYPYAMGSYRQAPGKERELVAAITSSGGSTYYADSVKGRFTISRDNAKNTVYLQMNSLKPEDTAVYYCAAYTSYYGTIIAFRYYYWGQGTQVTVSS”: the “polyreactivity (PSR sort gate)” value was “high polyreactivity”.

For the sequence “QVQLVESGGGLVQAGGSLRLSCAASGFIFYQYAMGWYRQAPGKERELVAAISWGGGSTYYADSVKGRFTISRDNAKNTVYLQMNSLKPEDTAVYYCAATGLGWHSYHEYDYWGQGTQVTVSS”, the “polyreactivity (PSR sort gate)” value is listed as “low polyreactivity”.

With “QVQLVESGGGLVQAGGSLRLSCAASGFIFYQYAMGWYRQAPGKERELVATISFRGGRTYYADSVKGRFTISRDNAKNTVYLQMNSLKPEDTAVYYCNAKRVSSRFYKWDYYWGQGTEVTVSS”, the “polyreactivity (PSR sort gate)” value is “high polyreactivity”.

Turning to “QVQLVESGGGLVQAGGSLRLSCAASGFIFYRNTMGWYRQAPGKERELVATISRRGGSTYYADSVKGRFTISRDNAKHTVYLQMNSLKPEDTAVYYCNADQEYSRPRYGMDYWGQGTQVTVSS”, the “polyreactivity (PSR sort gate)” value is recorded as “high polyreactivity”.

Turning to “QVQLVESGGGLVQAGGSLRLSCAASGFIFYRYAMGWYRQAPGKERELVAAISYSGGSTYYADSVKGRFTISRDNAKNTVYLQMNSLKPEDTAVYYCAKGLTALGDYWGQGTQVTVSS”, the “polyreactivity (PSR sort gate)” value was “high polyreactivity”.

“QVQLVESGGGLVQAGGSLRLSCAASGFIFYRYAMGWYRQQPGKERELVAAISSRGGTTYYADSVKWRFTISRDNAKNTVYLQMNSLKPEDTAVYYCAADRGYKMGYWLQGTQVTVSS”: the “polyreactivity (PSR sort gate)” value was “high polyreactivity”.

On to “QVQLVESGGGLVQAGGSLRLSCAASGFIFYRYTMGWYRPAPGKERELVASITWSDGSTSYADSVNGRFTISRDNAKNTVYLQMNSLKPEDTAVYYCAADVSYQVIYEYDYSGQGTQVTVSS”, for which the “polyreactivity (PSR sort gate)” value is “low polyreactivity”.

On to “QVQLVESGGGLVQAGGSLRLSCAASGFIFYRYTMGWYRQAPGKERELVAAITSAGSTYYADSVKGRFTISRDNAKNTVYLQMNSLKPEDTAVYYCNADSTWGGYGFDYWGQGTQVTVSS”, for which the “polyreactivity (PSR sort gate)” value is “low polyreactivity”.

On to “QVQLVESGGGLVQAGGSLRLSCAASGFIFYRYTMGWYRQAPGKERELVAGISSRGTRTYYADSVKGRFTISRDNAKNTVYLQMNSLKPEDTAVYYCAAVLTQPKKVNYWGQGTQVTVSS”, for which the “polyreactivity (PSR sort gate)” value is on record as “high polyreactivity”.

With “QVQLVESGGGLVQAGGSLRLSCAASGFIFYRYVMGWFRQAPGKERELVAAISGRGGSTYYADSVKGRFTISRDNAKNTVYLQMNSLTPEDTAVYYCNRLVYRAAGGPMDYWGQGTQVTVSS”, the “polyreactivity (PSR sort gate)” value is “high polyreactivity”.

With “QVQLVESGGGLVQAGGSLRLSCAASGFIFYSNAMGWYRQAPGKERELVAAISRGGGSTYYADSVKGRFTISRDNAKNTVYLQMNSLKPEDTAVYYCAAELYRWYYYWGQGTQVTVSS”, the “polyreactivity (PSR sort gate)” value was “high polyreactivity”.

As to “QVQLVESGGGLVQAGGSLRLSCAASGFIFYSNAMGWYRQAPGKERELVAAISWDAGSTYYADSVKGRFTISRDNAKNTVYLQMNSLKPEDTAVYYCATDRIVGRYIYNNWGQGTQVTVSS”, the “polyreactivity (PSR sort gate)” value is “high polyreactivity”.

In the case of “QVQLVESGGGLVQAGGSLRLSCAASGFIFYSNMGWYRQARGKEREFVAAITWRGGSTYADSVKGRFTISRDNAKNTVYLQMNSLKPEDTAVYYCARESYRAHTPGHPSGTRFGYWGQGTQVTVSS”, the “polyreactivity (PSR sort gate)” value is listed as “high polyreactivity”.

On to “QVQLVESGGGLVQAGGSLRLSCAASGFIFYTYAMGWYRQAPGKERELGADITSGGSTYYADSVKGRFTISRDNAKNTVYLQMNSLKPEDTAVYYCAADPGYPANRTEWRDFDYWGQGTQVTVSS”, for which the “polyreactivity (PSR sort gate)” value is on record as “low polyreactivity”.

For the sequence “QVQLVESGGGLVQAGGSLRLSCAASGFIFYVYAMGWYRQAPGKERELVATITSGGSTNYADSVKGRFTISRDNAKNTVYLQMNSLKPEDTAVYYCAADGWQSQYEYDYWGQGTQVTVSS”, the “polyreactivity (PSR sort gate)” value is “low polyreactivity”.

Turning to “QVQLVESGGGLVQAGGSLRLSCAASGFIFYWYAMGWYRQAPWKEREFVAAISSSGGNTSYADSVKGRFTISRDNAKNTVYLQMNSLKPEVTAVYYCAATSRAFYRSLYYYWGQGTQVTVSS”, the “polyreactivity (PSR sort gate)” value was “low polyreactivity”.

Turning to “QVQLVESGGGLVQAGGSLRLSCAASGFIFYYNAMGWYRQAPGKERELVAAISSRGGSTYYADSVKGRFTISRDNAKNTVYLQMNSLKPEDTAVYYCNAKRYFRNHFRTGGMYYWGQGTQVTVSS”, the “polyreactivity (PSR sort gate)” value was “high polyreactivity”.

Turning to “QVQLVESGGGLVQAGGSLRLSCAASGFIFYYNAMGWYRQAPGKERELVAGISRSAGSTYYADSVKGRFTISRDNAKNTVYLQMNSLKPEDTAVYYCNAEVYGGRYYVDMYYWGQGTQVTVSS”, the “polyreactivity (PSR sort gate)” value is recorded as “low polyreactivity”.

As to “QVQLVESGGGLVQAGGSLRLSCAASGFIFYYYAMGWYRQAPGKEREFVAGISRSGGSTYYADSVKGRFTISRDNAKNTVYLQMKSLKPEDTAVYYCAARYVQHKIYRLAQGEYWGQGTQVTVSS”, the “polyreactivity (PSR sort gate)” value is listed as “high polyreactivity”.

Source of the values: the nanobody polyreactivity screen of Harvey et al. (2022).
